Experimental data reported in IntAct's records for PubMed 19737519.

B1: Ribosome assembly protein 4 (Saccharomyces cerevisiae), P25382 (parent)
chain: MSTLIPPPSKKQKKEAQLPREVAIIPKDLPNVSIKFQALDTGDNVGGALRVPGAISEKQLEELLNQLNGTSDDPVPYTFSCTIQGKKASDPVKTIDITDNLYSSLIKPGYNSTEDQITLLYTPRAVFKVKPVTRSSSAIAGHGSTILCSAFAPHTSSRMVTGAGDNTARIWDCDTQTPMHTLKGHYNWVLCVSWSPDGEVIATGSMDNTIRLWDPKSGQCLGDALRGHSKWITSLSWEPIHLVKPGSKPRLASSSKDGTIKIWDTVSRVCQYTMSGHTNSVSCVKWGGQGLLYSGSHDRTVRVWDINSQGRCINILKSHAHWVNHLSLSTDYALRIGAFDHTGKKPSTPEEAQKKALENYEKICKKNGNSEEMMVTASDDYTMFLWNPLKSTKPIARMTGHQKLVNHVAFSPDGRYIVSASFDNSIKLWDGRDGKFISTFRGHVASVYQVAWSSDCRLLVSCSKDTTLKVWDVRTRKLSVDLPGHKDEVYTVDWSVDGKRVCSGGKDKMVRLWTH

Variants of: B1
Conditions: with mdn1_yeast MDN1, Q12019
Sequence of mdn1_yeast MDN1, Q12019 (Q12019 whole entry): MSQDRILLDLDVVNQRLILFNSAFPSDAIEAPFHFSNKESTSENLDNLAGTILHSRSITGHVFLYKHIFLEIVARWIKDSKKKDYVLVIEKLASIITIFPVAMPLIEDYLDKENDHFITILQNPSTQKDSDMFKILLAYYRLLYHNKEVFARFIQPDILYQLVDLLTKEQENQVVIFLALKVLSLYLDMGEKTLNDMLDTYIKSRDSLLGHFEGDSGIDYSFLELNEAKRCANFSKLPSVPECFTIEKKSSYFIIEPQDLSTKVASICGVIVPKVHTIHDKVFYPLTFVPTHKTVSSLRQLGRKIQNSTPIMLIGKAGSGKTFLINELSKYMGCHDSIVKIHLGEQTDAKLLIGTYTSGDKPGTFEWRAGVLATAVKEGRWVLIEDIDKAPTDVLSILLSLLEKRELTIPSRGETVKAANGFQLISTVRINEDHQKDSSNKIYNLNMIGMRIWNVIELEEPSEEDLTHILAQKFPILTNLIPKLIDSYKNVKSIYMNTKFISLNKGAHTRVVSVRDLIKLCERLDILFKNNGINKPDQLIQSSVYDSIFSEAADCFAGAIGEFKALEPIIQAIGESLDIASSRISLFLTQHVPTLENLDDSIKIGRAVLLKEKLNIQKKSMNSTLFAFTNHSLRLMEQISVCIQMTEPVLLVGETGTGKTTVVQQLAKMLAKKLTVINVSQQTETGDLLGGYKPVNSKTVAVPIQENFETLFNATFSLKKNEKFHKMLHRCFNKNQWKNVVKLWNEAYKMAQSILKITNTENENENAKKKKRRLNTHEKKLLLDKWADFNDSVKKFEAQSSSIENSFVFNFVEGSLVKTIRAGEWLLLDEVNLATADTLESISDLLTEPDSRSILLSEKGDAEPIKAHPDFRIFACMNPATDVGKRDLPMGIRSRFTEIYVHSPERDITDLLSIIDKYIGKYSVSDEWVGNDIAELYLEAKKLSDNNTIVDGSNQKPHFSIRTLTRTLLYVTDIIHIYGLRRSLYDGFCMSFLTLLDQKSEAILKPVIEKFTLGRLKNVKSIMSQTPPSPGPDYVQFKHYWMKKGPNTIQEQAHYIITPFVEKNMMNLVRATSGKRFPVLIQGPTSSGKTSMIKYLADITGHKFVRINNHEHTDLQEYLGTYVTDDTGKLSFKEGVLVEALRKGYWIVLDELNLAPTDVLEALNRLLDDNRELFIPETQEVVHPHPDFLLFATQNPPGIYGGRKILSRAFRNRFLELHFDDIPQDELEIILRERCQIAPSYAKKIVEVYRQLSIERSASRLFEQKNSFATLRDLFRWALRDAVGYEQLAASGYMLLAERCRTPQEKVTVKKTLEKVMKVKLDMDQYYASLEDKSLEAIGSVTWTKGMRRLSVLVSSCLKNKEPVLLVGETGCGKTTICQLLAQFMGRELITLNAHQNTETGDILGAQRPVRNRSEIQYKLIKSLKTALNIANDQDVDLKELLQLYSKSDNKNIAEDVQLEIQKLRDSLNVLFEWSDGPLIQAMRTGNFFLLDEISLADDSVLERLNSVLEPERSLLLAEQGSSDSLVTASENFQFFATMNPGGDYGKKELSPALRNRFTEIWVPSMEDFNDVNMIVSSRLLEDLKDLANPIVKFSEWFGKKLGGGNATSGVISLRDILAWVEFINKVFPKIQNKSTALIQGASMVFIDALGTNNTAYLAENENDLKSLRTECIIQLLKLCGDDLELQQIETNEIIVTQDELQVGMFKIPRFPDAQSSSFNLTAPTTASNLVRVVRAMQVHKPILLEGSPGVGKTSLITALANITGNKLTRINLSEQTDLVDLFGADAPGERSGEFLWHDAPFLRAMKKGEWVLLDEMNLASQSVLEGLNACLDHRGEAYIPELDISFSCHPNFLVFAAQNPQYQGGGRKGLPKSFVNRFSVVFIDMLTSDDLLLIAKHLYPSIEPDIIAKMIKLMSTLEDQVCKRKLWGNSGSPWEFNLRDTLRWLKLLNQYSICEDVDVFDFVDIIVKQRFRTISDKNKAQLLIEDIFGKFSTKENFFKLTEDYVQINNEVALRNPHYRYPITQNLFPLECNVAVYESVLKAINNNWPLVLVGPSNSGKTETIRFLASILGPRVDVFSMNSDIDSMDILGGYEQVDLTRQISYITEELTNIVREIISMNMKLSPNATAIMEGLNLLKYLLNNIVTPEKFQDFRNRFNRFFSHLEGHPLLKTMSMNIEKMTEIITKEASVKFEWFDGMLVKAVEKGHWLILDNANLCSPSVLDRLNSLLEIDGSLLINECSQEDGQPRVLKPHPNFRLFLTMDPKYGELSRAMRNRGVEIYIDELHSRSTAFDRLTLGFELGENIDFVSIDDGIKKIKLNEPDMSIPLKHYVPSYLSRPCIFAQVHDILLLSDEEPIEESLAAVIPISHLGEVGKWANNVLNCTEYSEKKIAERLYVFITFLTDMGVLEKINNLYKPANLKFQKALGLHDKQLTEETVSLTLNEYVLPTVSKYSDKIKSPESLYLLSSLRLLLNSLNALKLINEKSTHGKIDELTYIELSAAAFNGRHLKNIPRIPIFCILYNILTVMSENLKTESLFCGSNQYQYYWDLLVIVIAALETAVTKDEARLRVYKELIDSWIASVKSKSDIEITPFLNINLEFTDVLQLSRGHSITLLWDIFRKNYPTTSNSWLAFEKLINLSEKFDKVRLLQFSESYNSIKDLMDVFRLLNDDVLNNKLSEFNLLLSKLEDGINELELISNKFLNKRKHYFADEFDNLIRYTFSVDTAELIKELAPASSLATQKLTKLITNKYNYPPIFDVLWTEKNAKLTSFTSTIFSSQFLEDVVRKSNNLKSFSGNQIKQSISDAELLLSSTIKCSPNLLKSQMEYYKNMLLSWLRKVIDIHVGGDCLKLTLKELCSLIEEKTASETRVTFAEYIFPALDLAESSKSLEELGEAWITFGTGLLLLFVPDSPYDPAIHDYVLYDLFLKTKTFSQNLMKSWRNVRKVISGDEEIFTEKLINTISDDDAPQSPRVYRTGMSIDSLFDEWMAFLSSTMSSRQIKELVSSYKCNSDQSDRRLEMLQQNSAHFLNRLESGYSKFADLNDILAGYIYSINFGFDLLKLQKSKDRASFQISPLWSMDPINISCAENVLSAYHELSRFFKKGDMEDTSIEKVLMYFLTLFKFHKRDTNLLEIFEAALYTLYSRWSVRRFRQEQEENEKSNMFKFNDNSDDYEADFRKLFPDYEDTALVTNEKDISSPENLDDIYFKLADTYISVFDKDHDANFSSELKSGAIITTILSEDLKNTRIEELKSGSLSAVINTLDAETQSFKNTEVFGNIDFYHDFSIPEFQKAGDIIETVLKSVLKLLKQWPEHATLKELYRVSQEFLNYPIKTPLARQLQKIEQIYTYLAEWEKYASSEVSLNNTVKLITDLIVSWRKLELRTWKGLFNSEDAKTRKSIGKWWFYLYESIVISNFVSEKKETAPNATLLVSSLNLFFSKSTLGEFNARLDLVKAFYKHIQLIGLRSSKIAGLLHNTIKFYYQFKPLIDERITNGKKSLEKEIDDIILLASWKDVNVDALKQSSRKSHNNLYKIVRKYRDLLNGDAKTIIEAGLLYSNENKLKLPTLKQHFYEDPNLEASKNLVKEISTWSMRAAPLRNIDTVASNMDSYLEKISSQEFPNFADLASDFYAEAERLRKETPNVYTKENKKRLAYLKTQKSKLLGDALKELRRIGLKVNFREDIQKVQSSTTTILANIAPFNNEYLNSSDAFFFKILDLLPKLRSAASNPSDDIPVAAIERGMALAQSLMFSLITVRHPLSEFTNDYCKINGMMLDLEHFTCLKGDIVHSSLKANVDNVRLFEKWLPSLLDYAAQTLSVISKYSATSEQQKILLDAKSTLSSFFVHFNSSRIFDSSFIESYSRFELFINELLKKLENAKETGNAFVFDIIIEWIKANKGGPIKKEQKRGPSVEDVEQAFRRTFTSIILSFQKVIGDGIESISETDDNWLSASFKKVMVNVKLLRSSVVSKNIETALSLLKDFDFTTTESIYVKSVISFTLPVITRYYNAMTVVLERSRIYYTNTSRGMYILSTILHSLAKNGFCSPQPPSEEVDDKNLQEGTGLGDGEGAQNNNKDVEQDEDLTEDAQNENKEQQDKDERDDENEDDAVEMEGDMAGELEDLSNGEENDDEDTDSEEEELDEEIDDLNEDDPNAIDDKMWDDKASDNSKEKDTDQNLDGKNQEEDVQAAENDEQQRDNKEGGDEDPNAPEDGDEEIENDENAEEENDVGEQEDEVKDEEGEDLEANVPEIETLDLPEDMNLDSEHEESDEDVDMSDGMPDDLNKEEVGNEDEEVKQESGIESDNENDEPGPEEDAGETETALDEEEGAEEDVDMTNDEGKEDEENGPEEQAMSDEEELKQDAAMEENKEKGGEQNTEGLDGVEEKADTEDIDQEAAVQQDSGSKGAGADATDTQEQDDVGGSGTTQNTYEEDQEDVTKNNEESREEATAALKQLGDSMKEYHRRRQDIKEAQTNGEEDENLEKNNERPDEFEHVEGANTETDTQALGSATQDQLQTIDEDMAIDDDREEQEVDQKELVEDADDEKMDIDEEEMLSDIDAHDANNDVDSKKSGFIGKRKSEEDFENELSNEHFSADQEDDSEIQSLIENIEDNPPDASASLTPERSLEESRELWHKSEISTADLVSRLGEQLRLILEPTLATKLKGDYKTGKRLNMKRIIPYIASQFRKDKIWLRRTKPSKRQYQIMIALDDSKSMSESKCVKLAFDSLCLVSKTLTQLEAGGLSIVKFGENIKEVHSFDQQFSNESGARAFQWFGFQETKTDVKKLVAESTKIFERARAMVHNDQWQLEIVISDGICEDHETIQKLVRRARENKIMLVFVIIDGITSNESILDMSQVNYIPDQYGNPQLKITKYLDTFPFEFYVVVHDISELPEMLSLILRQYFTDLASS

Question: MSTLIPPPSKKQKKEAQLPREVAIIPKDLPNVSIKFQALDTGDNVGGALRVPGAISEKQLEELLNQLNGTSDDPVPYTFSCTIQGKKASDPVKTIDITDNLYSSLIKPGYNSTADQITLLYTPRAVFKVKPVTRSSSAIAGHGSTILCSAFAPHTSSRMVTGAGDNTARIWDCDTQTPMHTLKGHYNWVLCVSWSPDGEVIATGSMDNTIRLWDPKSGQCLGDALRGHSKWITSLSWEPIHLVKPGSKPRLASSSKDGTIKIWDTVSRVCQYTMSGHTNSVSCVKWGGQGLLYSGSHDRTVRVWDINSQGRCINILKSHAHWVNHLSLSTDYALRIGAFDHTGKKPSTPEEAQKKALENYEKICKKNGNSEEMMVTASDDYTMFLWNPLKSTKPIARMTGHQKLVNHVAFSPDGRYIVSASFDNSIKLWDGRDGKFISTFRGHVASVYQVAWSSDCRLLVSCSKDTTLKVWDVRTRKLSVDLPGHKDEVYTVDWSVDGKRVCSGGKDKMVRLWTH [E114A] was tested. Which “effect of a mutation on the interaction” value did it give?
Answer: The value was “decreasing interaction”.

Question: How did the “effect of a mutation on the interaction” value turn out when MSTLIPPPSKKQKKEAQLPREVAIIPKDLPNVSIKFQALDTGDNVGGALRVPGAISEKQLEELLNQLNGTSDDPVPYTFSCTIQGKKASDPVKTIDITDNLYSSLIKPGYNSTDDQITLLYTPRAVFKVKPVTRSSSAIAGHGSTILCSAFAPHTSSRMVTGAGDNTARIWDCDTQTPMHTLKGHYNWVLCVSWSPDGEVIATGSMDNTIRLWDPKSGQCLGDALRGHSKWITSLSWEPIHLVKPGSKPRLASSSKDGTIKIWDTVSRVCQYTMSGHTNSVSCVKWGGQGLLYSGSHDRTVRVWDINSQGRCINILKSHAHWVNHLSLSTDYALRIGAFDHTGKKPSTPEEAQKKALENYEKICKKNGNSEEMMVTASDDYTMFLWNPLKSTKPIARMTGHQKLVNHVAFSPDGRYIVSASFDNSIKLWDGRDGKFISTFRGHVASVYQVAWSSDCRLLVSCSKDTTLKVWDVRTRKLSVDLPGHKDEVYTVDWSVDGKRVCSGGKDKMVRLWTH [E114D] was run?
Answer: Its value is “decreasing interaction”.
